Consider 15 sequences from a protein production outcome set (Wang et al. 2014).
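Further: failed if final PepcDB status was selected cloned or expressed and not failed if soluble or beyond.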

This data set is described as follows: label from the status in PepcDB records.
For “MNAHRAQLISLARPVYFSLLASVAAGIINTVWVSRLGGPAVAAVAVATNTENVLLGVALVFASGTTVLVAHARGAQDPGAVRAAVRGGWALCAVVTPVVAGCGYLLREPLARLVLGGEGPALPLAVGYFAISLPGITVFYAQNLVDGILKGAGDTRTPMRLALLANGLILALDPLLIHRYGVRGAAVSTVLCRCAALGVGLLALRRNALLRGAAAVRPAEATGAALRRTLSTGLPMSADFTVRQGGALVLVAIVARLGVTAVAAYSIAYKVMYVATMAFYAVRQAASIHTAHTRGADRRASSRSAGAGSGGERRAIGRQAVVVSGTVGLLASALLCVLAPWVMRAFGAGPEVAHQGVLFLRCVGPYLLLMACFIALGGVFEGSGGAPVLLRVTLLGTAVQLPLAYALSGLGLPGICLALALAMVVQCAALLPGVRRQEDARDSLVRVA”, the protein production entry is recorded as “failed”.

Consider “MNAIVEPRRAQPTDSDAILNALPNPVLLVGPDGKIVDANMAAESFFEISTQLLRRQSLTDLVPFGSPLLALIEQVRVGHSPVNEYKVDLGTPRIGADRQVDLHVAPLNERPGHIVVMLQERTIADKMDRQLTHRSAARSVIALAAMLAHEIKNPLSGIRGAAQLLEQQASAEDRMLTRLICDEADRIVTLVDRMEVFGDDRPVARGPVNIHSVLDHVKRLAQSGFARNIKFIEDYDPSLPPVLANQDQLIQVFLNLVKNAAEAVVDLGSDGEIQLTTAFRPGVRLSVPGKKTRVSLPLEFCVRDNGPGVPEDLLPNLFDPFVTTKPSGSGLGLALVAKIVGDHGGIIECESQPRKTTFRVLMPMFNTAKALQSPNGEDAPASSDASQTAR”, for which the protein production entry is “failed”.

With “MNAPLLTQDTKRTLAWIAVAVAFLALLKLLAPTLTPFVFAGILSYILHPGVEWLQRHRVPRVLGVFLMILLLTVVAVALMLLILAVLQREIPAIREQLPGMLSKLNAAVTPRLAEMGVHVRFDFPGLRKLLTEQLAASPEDVMSTALNYLRVSGSAAVQVLGIVFLVPIVMFYLLMDWNMLIRRLEGAVPRRWISKTRELAAETDGLLSQYLRGQIIVMLVLAAYYSAGLALAGFDVALPIGIFTGLAVFIPYIGFGIGLILAILSALLQFGNLYGLLAVAVVYGVGQVLEGFYLTPRLVGERIGLHPLAVILALLAFGQLFGFFGILLALPISAVLLVGLRQIRQLYLGSKLYRD”, the protein production entry is on record as “failed”. Turning to “MNAVGLVAFATVGSLKAIDADFDVLGVAVLGVLTALGGGATRDVLVGSVPAMLQSTTDVGFALAGVVVAVVVARRVGTEVLAHPVVDVPDAVGLAAFAASGALVGVGADVSPFGVVVLGTTTGVGGGLVSDVLLQRVPFVLTEDLYATCAIAGSTVLWVATASGLGATIAAAAGAGVTLAVRLLAIRFEWALPTVRLNAPA”, the protein production entry is recorded as “failed”. Take “MNAVHFGAGNIGRGFIGEILAKNGFHITFVDVNETIIQALKERKSYTIELADASHQQINVENVTGLNNMTEPEKVVEAIAEADLVTTAIGPNILPRIAELIAQGIDARAEANCQKPLDIIACENMIGGSTFLAEEVAKYLKNPAYAEQWIGFPDAAVDRIVPLQKHEDPLFVQVEPFCEWVIDDTNRKAKEIQLEGVHYVADLEPYIERKLFSVNTGHATVAYTGALLGYQTIDEAMQDALVVAQLKSVLQETGKLLVAKWNFDEQEHAAYIEKIIQRFQNKYISDAITRVARTPIRKLGAQERFIRPIRELQERNLVSPHLLAMIGIVFNYHDPEDEQSRQLQEMLDQESVDTVIAEVTGIEDPETVKNIKQNVERYARPQVA”: the protein production result was “failed”. The result for “MNCAISGEVPVEPVVSTKSGLLFERRLIERHISDYGKCPVTGEPLTIDDIVPIKTGEIIKPKTLHTASIPGLLGTFQNEWDGLMLSNFALEQQLHTARQELSHALYQHDSACRVIARLKKERDEARQLLAEVERHIPAAPEAVTANAALSNGKRAAVDEELGPDAKKLCPGISAEIITELTDCNAALSQKRKKRQIPQTLASIDTLERFTQLSSHPLHKTNKPGICSMDILHSKDVIATGGVDATAVLFDRPSGQILSTLTGHSKKVTSVKFVGDSDLVLTASADKTVRIWRNPGDGNYACGYTLNDHSAEVRAVTVHPTNKYFVSASLDGTWCFYDLSSGSCLAQVSDDSKNVDYTAAAFHPDGLILGTGTSQSVVKIWDVKSQANVAKFDGHTGEVTAISFSENGYFLATAAEDGVRLWDLRKLRNFKSFLSADANSVEFDPSGSYLGIAASDIKVYQTASVKAEWNLIKTLPDLSGTGKATCVKFGSDAQYVAVGSMDRNYGYLVFLVMKKPTSMMTLRKTREQSVKNSDRTFQMSISSVISLKFLKFCCILQYLQQWGRIS” reads “failed”; that for “MNDFSCPAIAFPSFLNPVIVHLGPIALYWYGLGYVVGILFVWWYAQKLLKKQSLWYANHPPMDKEKIGDFVVWSAISIVVGGRLGQVLVWDPIYYFSHPTAIITIWNGGMSFHGGLIGITIAMIWFARKNNIKIRAMFDIIAIGAPIGIGIVRICNFINQELWGNVTTHPWAVCFPLDPYYLPRHPSQLYEALMEGFLLFVILFILTFAFKALKRPGTVSGIFIIGYAIARSISEIYRAPQEDPEWFSTLFHSTGFTYGMALSLPMLFLGFYLLFQAFKDESTKNGHTQTKN”, “failed”. With “MNDFSLELPVRTNKPRETGQSILIDNGYPLQFFKDAIAGASDYIDFVKFGWGTSLLTKDLEEKISTLKEHDITFFFGGTLFEKYVSQKKVNEFHRYCTYFGCEYIEISNGTLPMTNKEKAAYIADFSDEFLVLSEVGSKDAELASRQSSEEWLEYIVEDMEAGAEKVITEARESGTGGICSSSGDVRFQIVDDIISSDIDINRLIFEAPNKTLQQGFIQKIGPNVNLANIPFHDAIALETLRLGLRSDTFFL”, the protein production result is “not failed”.

As for “MNDIAREPVLGGAPAPAVPQPLRVRFCGSGSEYFRIWIVNLLLTIVTLGIYSAWAKVRTLQYFYRNTQLGGASFDYHGSPTAILKGRAIIFVLALAFNLSGQVSPVLTLLLLAAIGLVFPWLLVRSLRFRMANSSYRGLRFAFTGKDAQAYKVFLLWPVLTVFTFNLLAPFAHQRFKQYQHRNTRFGTTSFDFSATAGQFYGVYLRTFGMAILAVMAVGVVVVLAGVSAAAGAASGGRAIAVSLMVLAMYAAMLFLGPYFLARLQNVVWNHTTLGAHRFQSQVSAGKLFWIFISNAALLIVTLGLFTPFARVRSARYKLESVTMLAAGSLDTFVAGESTRVGALGDAAVDWYDIDIAL”, the protein production result is reported as “failed”. For the sequence “MNDITIIGASQNNLKNINITIPKHLVTVFTGRSGSGKSSLVFRTIAAESEQLLNESYSSYIQFHLNKQPKPKVNAIKNLPVAMTISQKRFNGNSRSTVGTVSDIYASVRLLWSRIGEPFVGYSDAFSFNSPNGMCETCEGLGYIEDINLNELLDWNKSLNEGAINFPSFGPDKERGKAYRDSGLFDNDKKLKAYTKEELDLFLYQEPIKLKKPPEEWRKSAKYVGLIPRFRRIFLGDKEFNKKRYAKHLKNVVENKVCPTCNGQRLNSKILSCKIMGKNISDFTQMTVKENLAFLNKLNNSTAQFIIEPLRKQLEALDYIGLSYLTLDRVTTSLSGGEAQRLKLIRHLNSSLSDLVYIIDEPSVGLHPEDIAKINEILKSLKHKGNTVLIVEHDPDVIKEADYIIDMGPSSGAQGGEITFKGTYKKLLSSDTSTGEALRIKHHLKNEIREAKSFYHLGPVTQNNLNNVTVDIPKHVLTVLTGVAGSGKSSLVKAGFAKNDNAVFMDQKAIQGSDRSNLLTYLGVFDRVRNFFSKETGLNKSMFSYNSKGACPNCGGKGYIETELAFMGEFSQTCEVCHGKRYKPEVLNATIDGYSIADFLELTVDEGIRFFDKENEIQSKLQAISKTGLNYVTLGQPLSTLSGGEIQRVKLGQYLNDDVTDSIFIFDEPTTGLHEADIPILINCFNDLIEQNNTVILIEHNLSIMCDADWIIDVGPGPGLDGGKIQFSGYPINFVKENKTLTSKHLKLYIAND”, the protein production result is listed as “failed”. Take “MNDRARELASRLIRNFNEASLEHEVREPLYESAAARLGTGTVAHKLGASVDVVAPGKRSCPYHFHHAQEEMFVIIEGEGSLRVAGEMLPIKTGDVLFIPAGPEYPHQIINTSQAPLKYLSISTRETPEVCEYPDSGKYQAMVSANGARVFTANQRTTENVDYWDGEPLEHHHHHH”: the protein production entry is listed as “not failed”. The result for “MNDSTMKCIKLAAIVCIAIGLSACSEQKTTQEYILASKVYLQKLEYGAAIVELKNAVRQTPKDAEARYYLAKAYSEQGSYVNAEKELDKAEQFGLEMNLLLPDLVFIKSKLNKVEEVYALMENVESLNDEQYIVVLTYAGITALNNKELERAQDFIAQANTISETSLYSKMGAAYLLHAEDNFSKGIEIIDTVLGESPDFTEALLLKGHLLFSSEQFIQANGVYTKYRQLHPFANKVLFFEVNSLISAGEYEQADVKATELIKRFKNSPLAHQYKAQVEYQKKNYEDARSYAISAAQQGNEFIISKLIAGMSSYQLGDIEQAYGYLNQTEKYLPSSHPIKRILASIKIKLGYTTEGIVQLSALEGLTTSDAGLFQSSSIELIKAGDFENAIKLLDKASIIAPENASVAAQKGMLKLSQNDKTGIASLEHALNLDPNLKDVEFSLAIQYLDNGQEKKVRSIAKKWIASQDNQASGYLLLGIIHSNNNLSSKAEENYQKALSIEPENYTALFYLADIAEDADRILDAVDYYQKVVTILPEHKAAIQKLSRLQLKHNNTSNNVEFLSTLAAKHPKNITLALGLAQNLRLNNELKKAITLLESMSDWARSSQQYWAILGDNYLQAKSHTKAKECFKKVLALNPNNFVAHLRLIAISEVKRNYKQALTYTISSLERFEHNTRLLILKANFELLTGDLVSAKKTLRYLQEQKVSHHLINKFVGELALADKDYPSAIDNFHELYQKSPTALNVMLLARALSFNGQKAEAAQTIESYLSRMIKDHKVRLLLAELYMQFDEAKAIKHLEIINQSEQNNAVVLNNLAMLELKRARPEQALLYAEKAFELKSGIHQISDTYGAALVTVKNFDSAIIVLLNAINQGSEAETTYVNLTKAYLATGKTDKVKALLDSIKDRTFYSKVQAMR” reads “failed”; that for “MNEDGNDTPRPLGEVPEFRRIRSGPLPPHQNIPPRRRAPADQLPWLPSAAARRRRAALLLCGFLSAVVLLVSGSSWAVTGWLSDQLHRYDVFTGLLDENRPPASQGALNFLVIGSDDRSGLDSRQRSELGVGNVEGRRSDTMMLVHLNHQREHITVVGIPRDSWVRIPGHGPDKINAAYSLGGPQLAVQTVEAATGVRIDHYVEIDFTGFVEVVDTLGGITVCLPEAIHDEKAHLSLEAGTHRLQGTQALAFARTRKSPHGDLDRIDRQQQVLAALLDEALNAQILSDPARLAQFVETALGSITVDDTLDTAALIQLGTQLRSLGLDDVTFTQVPVDRIDFWTPSGEVAVTWHEQHATELFTAIAADRPIPQPQSAEDSALPSPDEVTVEVYNGTTIPGLGAQVRVELLESGFQVPESAGNWPQQDLAETLVRYSPEREDAATLLVESIPGARAEVDPGLGGRVQVIAGVNHTGVAVPAHAASPIAEQPVDVGGRETVHTRTAAENVCR”, “failed”; that for “MNEELKKSIAASIENTRFDILQMIELGRELIDYPDEIHHGPVVSMGVPKDTLPKWDDIQILTAQLHKKPLIDDAPVDTQLVIGPRAQKPLVLDIPLLVGDMSYGALSKRAKQALSKGADLAGTAICSGEGGILGDELELNQSYMFELGSARNGLKKNSDLSQFSKDFKGKVKAFHFKGGQAAKTGTGGHLPGGKVTEEIAKARQIEVGKDAISPSTFADFHTPRDFADFADQIRDQMGGIPIGFKISANHIEDDMRFALDAGADYIILDGRGGSTGAAPGIFRDHISVPTIAALARARKFLDVAGHEKGAKNSVTLIITGGLRIPSDFIKALALGADGIALANSALQAIGCTGARICYSGDCPAGIATHAQHLVNKIDVDARARDLALFFNGSVHLMKIMTRACGHHSLREFSRDDICTWKAEISRLAGIPYAGVDPSNP”, “failed”. The same measure for “MNEFAQSPRSCVLGCSGLGYSVRGTPLLSDVDLSIATGETLAVVGPNGSGKSTLLKLLAGIQKPGSGAVRLGEQALAAMSRRDVARLLAVVEQQAETSDAVTVLDAVELGRTPWLSALEPWSANDDAIVRQALQDVDMLHMQKRAWHTLSGGERQRVHIARALAQRPQILLLDEPTNHLDIQHQLTILGLVRALPVTTVIALHDLNQALDCDRVAVMEKGRLVALGTPVEVLTPKRLLSTFGVVAHWLTDPFDGAKILRLRSR”: “failed”.
